In the experiment the target is QC (Homo sapiens, UniProt Q16769). Put plainly: LC/MS analysis of QC-catalyzed pyroglutamate formation. It counts as biochemical.
Chain of QC (Q16769 29-361): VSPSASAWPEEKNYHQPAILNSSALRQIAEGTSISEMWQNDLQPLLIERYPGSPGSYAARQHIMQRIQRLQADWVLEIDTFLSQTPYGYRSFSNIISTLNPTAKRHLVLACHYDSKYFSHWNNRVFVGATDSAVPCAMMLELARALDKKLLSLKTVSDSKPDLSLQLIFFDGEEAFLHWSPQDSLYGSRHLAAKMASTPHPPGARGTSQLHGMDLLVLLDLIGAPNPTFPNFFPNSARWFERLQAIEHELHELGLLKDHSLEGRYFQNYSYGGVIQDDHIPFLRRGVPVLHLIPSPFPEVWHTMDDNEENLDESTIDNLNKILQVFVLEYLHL

B1: MCP-2 isoforms: Human Monocyte Chemotactic Protein 2 (MCP-2) isoforms, 76 residue chemokine (protein, UniProt P80075 24-99, looked up)
C-C motif chemokine 8: QPDSVSIPITCCFNVINRKIPIQRLESYTRITNIQCPKEAVIFKTKRGKEVCADPKERWVRDSMKHLDQIFQNLKP
For B1, the “formation of N-terminal pyroglutamate catalyzed by QC” value is reported as “is catalyzed by QC”.

Source of the values: patent publication US7462599B2, “Use of effectors of glutaminyl and glutamate cyclases” (Probiodrug AG, priority 2003, dated 2008).
